Measurements as given in patent EP4813396A2 (Amphivena Therapeutics, Inc., dated 2026).
Numbering of substitutions follows the chain as printed. Values joined by “and” are separate entries in the source; they are usually repeats but may differ in a detail not shown here. Identical values can stand only once. One block for each binder: values may come before it.

Experiments:
[1] = target: T1, human CD33 on cells (human, UniProt P20138 18-364); assay: cell-based or functional assay
[2] = target: T1, human CD33 on cells; assay: flow cytometry, titration on KG-1 cells
[3] = target: T2, human CD3 on T cells (human, UniProt P07766 23-207); assay: flow cytometry, titration on human CD3+ T cells (Jurkat per paragraph 124/paragraph 125)
T2 construct: whole, on cells; also called hu CD3; CD3 on Jurkat cells

[4] = target: cynomolgus CD33 on CHO cells (cynomolgus monkey); assay: flow cytometry; KD on CHO-cynomolgus CD33 cells divided by KD on CHO-human CD33 cells
[5] = target: T1, human CD33 on cells; assay: flow cytometry, HL-60 cells
[6] = target: T1, human CD33 on cells; assay: flow cytometry, titration on HL-60 cells
[7] = target: T1, human CD33 on cells; assay: flow cytometry, titration on U-937 cells
[8] = target: T2, human CD3 on T cells; assay: cell-based or functional assay
[9] = target: T2, human CD3 on T cells; assay: flow cytometry, human T-cells (as headed in Table 10)
[10] = target: T1, human CD33 on cells; assay: cell-based or functional assay; remark: listed apart in the source
[11] = target: T1, human CD33 on cells; assay: cell-based or functional assay; remark: listed apart in the source
[12] = target: T1, human CD33 on cells; assay: cell-based or functional assay; remark: listed apart in the source
[13] = target: T1, human CD33 on cells; assay: cell-based or functional assay; remark: listed apart in the source

T2 sequence (P07766 23-207): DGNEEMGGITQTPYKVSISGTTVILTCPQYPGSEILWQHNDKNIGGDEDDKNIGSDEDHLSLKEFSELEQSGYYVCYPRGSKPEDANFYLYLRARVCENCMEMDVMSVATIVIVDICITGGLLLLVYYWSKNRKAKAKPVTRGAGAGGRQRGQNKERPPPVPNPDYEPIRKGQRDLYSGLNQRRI
T1 sequence (P20138 18-364): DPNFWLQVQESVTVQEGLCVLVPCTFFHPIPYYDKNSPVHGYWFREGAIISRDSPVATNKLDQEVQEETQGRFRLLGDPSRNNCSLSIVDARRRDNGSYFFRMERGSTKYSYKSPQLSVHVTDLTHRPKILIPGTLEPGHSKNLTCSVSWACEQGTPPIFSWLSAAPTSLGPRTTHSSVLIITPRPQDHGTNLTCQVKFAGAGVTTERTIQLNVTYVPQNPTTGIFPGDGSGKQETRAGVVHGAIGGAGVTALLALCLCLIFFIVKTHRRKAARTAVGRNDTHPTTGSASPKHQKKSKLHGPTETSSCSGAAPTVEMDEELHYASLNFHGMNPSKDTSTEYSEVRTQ

B1: CD33/CD3 tandem diabody 17 (bispecific antibody)
chain: DIQMTQSPSSLSASVGDRVTITCRSSTGAVTTSNYANWVQQKPGKAPKALIGGTNKRAPGVPSRFSGSLIGDKATLTISSLQPEDFATYYCALWYSNLWVFGQGTKVEIKGGSGGSQVQLVQSGAEVKKPGESLKISCKGSGYSFTSYWIGWVRQMPGKGLEWMGIIYPGDSDTRYSPSFQGQVTISADKSISTAYLQWSSLKASDTAMYYCARHKRGSDAFDIWGQGTTVTVSSGGSGQSVLTQPPSVSGAPGQRVTISCTGSSSNIGAGYDVHWYQQLPGTAPKLLIYGNSNRPSGVPDRFSGSKSGTSASLAITGLQAEDEADYYCQSYDSSLSDVVFGGGTKLTVLGGSGGSEVQLVESGGGLVQPGGSLRLSCAASGFTFSTYAMNWVRQAPGKGLEWVGRIRSKYNNYATYYADSVKDRFTISRDDSKNSLYLQMNSLKTEDTAVYYCARHGNFGNSYVSYFAYWGQGTLVTVSSAAAGSHHHHHH
notes: Non-covalent homodimer; domain order 1; also called TandAb 17
EC50 on HL-60 [pM] (cytotoxicity) [1]: 18.4 pM | Kd [2]: 52.5 nM | Kd [3]: 3.3 nM | KD ratio cynoCD33/ huCD33 [4]: 1.9 | Kd [5]: 5 nM | Kd [6]: 5 nM | Kd [7]: 24.4 nM | CD25 Induction EC50 (pM) [8]: 30 pM | CD69 Induction EC50 (pM) [8]: 114 pM | T cell Proliferation in PBMC EC50 (pM) [8]: 30 pM | Kd [9]: 3.3 nM

B5: CD33/CD3 tandem diabody 19 (bispecific antibody)
chain: DIQMTQSPSSLSASVGDRVTITCRSSTGAVTTSNYANWVQQKPGKAPKALIGGTNKRAPGVPSRFSGSLIGDKATLTISSLQPEDFATYYCALWYSNLWVFGQGTKVEIKGGSGGSQVQLVQSGAEVKKPGASVKVSCKASGYTFTSYYMHWVRQAPGQGLEWMGIINPSGGSTSYAQKFQGRVTMTRDTSTSTVYMELSSLRSEDTAVYYCARDVVPAAIDYYGMDVWGQGTTVTVSSGGSGQSVLTQPPSASGTPGQRVTISCSGSSSNIGSNTVNWYQQLPGTAPKLLIYSDNQRPSGVPDRFSGSKSGSSASLAISGLQSDDEADYYCATWDDSLNGAVFGGGTKLTVLGGSGGSEVQLVESGGGLVQPGGSLRLSCAASGFTFSTYAMNWVRQAPGKGLEWVGRIRSKYNNYATYYADSVKDRFTISRDDSKNSLYLQMNSLKTEDTAVYYCARHGNFGNSYVSYFAYWGQGTLVTVSSAAAGSHHHHHH
notes: Non-covalent homodimer; domain order 1; also called TandAb 19
EC50 on HL-60 [pM] (cytotoxicity) [1]: 5.7 pM | Kd [2]: 3.6 nM | Kd [3]: 6.3 nM | KD ratio cynoCD33/ huCD33 [4]: 37.3 | Kd [5]: 2.8 nM | Kd [6]: 2.8 nM | Kd [7]: 5.4 nM | CD25 Induction EC50 (pM) [8]: 9 pM | CD69 Induction EC50 (pM) [8]: 5 pM | T cell Proliferation in PBMC EC50 (pM) [8]: 6 pM | Kd [9]: 6.3 nM | IC50, lysis of KG-1 cells with human T cells (E:T 5:1, 24 h) [12]: ~5 pM

Binders with a lower Kd [2], results first:

Kd [2]: 0.9 nM | Kd [3]: 1.5 nM | KD ratio cynoCD33/ huCD33 [4]: 1.7 | Kd [5]: 0.3 nM | EC50 [pM (pg/mL)] on human CD33+ target cell lines: mean of HL-60, U-937, KG-1 [10]: 1.1 pM and 116 pg/mL | Kd [6]: 0.3 nM | Kd [7]: 0.5 nM | CD25 Induction EC50 (pM) [8]: 6 pM | CD69 Induction EC50 (pM) [8]: 3 pM | T cell Proliferation in PBMC EC50 (pM) [8]: 2 pM | Kd [9]: 1.5 nM | IC50, lysis of KG-1 cells with human T cells (E:T 5:1, 24 h) [12]: ~0.01 pM
B2: CD33/CD3 tandem diabody 12 (bispecific antibody)
chain: DIQMTQSPSSLSASVGDRVTITCRSSTGAVTTSNYANWVQQKPGKAPKALIGGTNKRAPGVPSRFSGSLIGDKATLTISSLQPEDFATYYCALWYSNLWVFGQGTKVEIKGGSGGSQVQLVQSGAEVKKPGASVKVSCKASGYTFTSYDINWVRQAPGQGLEWMGWMNPNSGNTGFAQKFQGRVTMTRDTSTSTVYMELSSLRSEDTAVYYCARDRAVTDYYYGMDVWGQGTLVTVSSGGSGQSVLTQPPSASGTPGQRVTISCSGSRSNIGSNTVNWYQQLPGTAPKLLIYGNNQRPSGVPDRFSGSKSGTSASLAISGLQSEDEADYYCATWDDSLIGWVFGGGTKLTVLGGSGGSEVQLVESGGGLVQPGGSLRLSCAASGFTFSTYAMNWVRQAPGKGLEWVGRIRSKYNNYATYYADSVKDRFTISRDDSKNSLYLQMNSLKTEDTAVYYCARHGNFGNSYVSYFAYWGQGTLVTVSSAAAGSHHHHHH
notes: Non-covalent homodimer; domain order 1; also called TandAb 12
EC50 on HL-60 [pM] (cytotoxicity) [1]: 1.3 pM | EC50 [pM (pg/mL)] on human CD33+ target cell lines: HL-60 (cytotoxicity, E:T 5:1, 20-24 h) [10]: 1.3 pM and 137 pg/mL | EC50 [pM (pg/mL)] on human CD33+ target cell lines: KG-1 (cytotoxicity, E:T 5:1, 20-24 h) [10]: 1.2 pM and 126 pg/mL | EC50 [pM (pg/mL)] on human CD33+ target cell lines: U-937 (cytotoxicity, E:T 5:1, 20-24 h) [10]: 0.8 pM and 84 pg/mL | EC50 [pM] mean, cytotoxicity on BV-173 cells [11]: 1.4 pM | EC50 [pM] mean, cytotoxicity on CHO-CD33 cells [11]: 11.8 pM | EC50 [pM] mean, cytotoxicity on HL-60 cells [11]: 1.4 pM | EC50 [pM] mean, cytotoxicity on K562 cells [11]: 4.5 pM | EC50 [pM] mean, cytotoxicity on KASUMI-1 cells [11]: 1.3 pM | EC50 [pM] mean, cytotoxicity on KG-1 cells [11]: 1 pM | EC50 [pM] mean, cytotoxicity on RPMI-8226 cells [11]: 14 pM | EC50 [pM] mean, cytotoxicity on THP-1 cells [11]: 1.9 pM | EC50 [pM] mean, cytotoxicity on U-937 cells [11]: 0.9 pM

Kd [2]: 0.2 nM | Kd [3]: 2.1 nM | KD ratio cynoCD33/ huCD33 [4]: 1.4 | Kd [5]: 0.3 nM | EC50 [pM], calcein release, HL-60 targets, E:T 25:1, incubation 30 min [13]: 4.8 pM | EC50 [pM], calcein release, HL-60 targets, E:T 25:1, incubation 60 min [13]: 2.5 pM | EC50 [pM], calcein release, HL-60 targets, E:T 25:1, incubation 120 min [13]: 1.6 pM | EC50 [pM], calcein release, HL-60 targets, E:T 25:1, incubation 180 min [13]: 1.6 pM | EC50 [pM], calcein release, HL-60 targets, E:T 25:1, incubation 240 min [13]: 1.5 pM | EC50 [pM], calcein release, HL-60 targets, E:T 25:1, incubation 300 min [13]: 1.6 pM | EC50 [pM (pg/mL)] on human CD33+ target cell lines: mean of HL-60, U-937, KG-1 [10]: 1.7 pM and 179 pg/mL | Kd [6]: 0.3 nM | Kd [7]: 0.3 nM | CD25 Induction EC50 (pM) [8]: 1 pM | CD69 Induction EC50 (pM) [8]: 2 pM | T cell Proliferation in PBMC EC50 (pM) [8]: 3 pM | Kd [9]: 5.1 nM | IC50, lysis of KG-1 cells (separate experiment) [12]: 0.005 nM | IC50, lysis of KG-1 cells with human T cells (E:T 5:1, 24 h) [12]: ~0.5 pM
B3: CD33/CD3 tandem diabody 16 (bispecific antibody)
chain: B2 chain with V218N, Y222S, Y223L
notes: Non-covalent homodimer; domain order 1; also called TandAb 16
EC50 on HL-60 [pM] (cytotoxicity) [1]: 1.5 pM | EC50 [pM (pg/mL)] on human CD33+ target cell lines: HL-60 (cytotoxicity, E:T 5:1, 20-24 h) [10]: 1.5 pM and 158 pg/mL | EC50 [pM (pg/mL)] on human CD33+ target cell lines: KG-1 (cytotoxicity, E:T 5:1, 20-24 h) [10]: 1.8 pM and 189 pg/mL | EC50 [pM (pg/mL)] on human CD33+ target cell lines: U-937 (cytotoxicity, E:T 5:1, 20-24 h) [10]: 1.9 pM and 200 pg/mL | EC50 [pM] mean, cytotoxicity on BV-173 cells [11]: 3.2 pM | EC50 [pM] mean, cytotoxicity on CHO-CD33 cells [11]: 24 pM | EC50 [pM] mean, cytotoxicity on HL-60 cells [11]: 1.6 pM | EC50 [pM] mean, cytotoxicity on K562 cells [11]: 4.8 pM | EC50 [pM] mean, cytotoxicity on KASUMI-1 cells [11]: 2.4 pM | EC50 [pM] mean, cytotoxicity on KG-1 cells [11]: 1.9 pM | EC50 [pM] mean, cytotoxicity on RPMI-8226 cells [11]: 2.8 pM | EC50 [pM] mean, cytotoxicity on THP-1 cells [11]: 6 pM | EC50 [pM] mean, cytotoxicity on U-937 cells [11]: 1.3 pM

Kd [2]: 0.3 nM | Kd [3]: 2.1 nM | KD ratio cynoCD33/ huCD33 [4]: 1 | Kd [5]: 0.3 nM | EC50 [pM (pg/mL)] on human CD33+ target cell lines: mean of HL-60, U-937, KG-1 [10]: 2.6 pM and 273 pg/mL | Kd [6]: 0.3 nM | Kd [7]: 1.2 nM | CD25 Induction EC50 (pM) [8]: 10 pM | CD69 Induction EC50 (pM) [8]: 7 pM | T cell Proliferation in PBMC EC50 (pM) [8]: 6 pM | Kd [9]: 2.1 nM
B4: CD33/CD3 tandem diabody 14 (bispecific antibody)
chain: B2 chain with V218N, Y221F, Y222S, T312S
notes: Non-covalent homodimer; domain order 1; also called TandAb 14
EC50 on HL-60 [pM] (cytotoxicity) [1]: 1.6 pM | EC50 [pM (pg/mL)] on human CD33+ target cell lines: HL-60 (cytotoxicity, E:T 5:1, 20-24 h) [10]: 1.6 pM and 168 pg/mL | EC50 [pM (pg/mL)] on human CD33+ target cell lines: KG-1 (cytotoxicity, E:T 5:1, 20-24 h) [10]: 2.6 pM and 273 pg/mL | EC50 [pM (pg/mL)] on human CD33+ target cell lines: U-937 (cytotoxicity, E:T 5:1, 20-24 h) [10]: 3.6 pM and 378 pg/mL
